Test results: PMC2768988 (2009)

Target: T1, Flrt3 ectodomain (zebrafish, biotin on the enzymatically biotinylatable sequence (bait form))
T1 chain: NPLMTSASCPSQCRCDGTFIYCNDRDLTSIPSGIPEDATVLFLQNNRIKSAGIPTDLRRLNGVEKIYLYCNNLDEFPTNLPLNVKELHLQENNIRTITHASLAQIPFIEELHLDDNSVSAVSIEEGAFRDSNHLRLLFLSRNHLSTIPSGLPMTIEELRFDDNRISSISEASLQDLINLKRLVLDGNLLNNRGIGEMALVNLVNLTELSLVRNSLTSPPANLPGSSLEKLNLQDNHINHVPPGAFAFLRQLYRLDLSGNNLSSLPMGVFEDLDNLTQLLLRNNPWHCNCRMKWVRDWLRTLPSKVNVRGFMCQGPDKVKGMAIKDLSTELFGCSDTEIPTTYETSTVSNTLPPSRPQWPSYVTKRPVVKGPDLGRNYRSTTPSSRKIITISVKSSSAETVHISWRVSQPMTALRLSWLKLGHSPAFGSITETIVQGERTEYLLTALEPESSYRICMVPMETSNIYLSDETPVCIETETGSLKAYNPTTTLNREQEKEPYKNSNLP
Experiment: SPR

koff: 5.5 s⁻¹
B1: Unc5b-Cd4d3+4-6His (domain or fragment)
chain: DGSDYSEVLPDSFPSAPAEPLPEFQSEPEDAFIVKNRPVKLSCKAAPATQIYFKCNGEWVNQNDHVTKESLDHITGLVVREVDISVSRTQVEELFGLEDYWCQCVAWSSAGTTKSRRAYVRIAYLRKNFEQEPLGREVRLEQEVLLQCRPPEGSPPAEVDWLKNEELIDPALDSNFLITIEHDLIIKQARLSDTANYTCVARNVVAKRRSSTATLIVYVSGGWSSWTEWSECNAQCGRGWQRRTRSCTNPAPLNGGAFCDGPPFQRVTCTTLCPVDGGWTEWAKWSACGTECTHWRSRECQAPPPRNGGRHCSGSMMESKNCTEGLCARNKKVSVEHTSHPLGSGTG
